Residue numbers refer to the chain shown, from its start. Like-named read-outs stand apart in the source and are kept apart here. Blank lines part the entries; values can stand above or below the binder they belong to.
Experiments:
[1] = target: T1, human TrkB expressed on a stable cell line (human, UniProt Q16620 32-822); test: cell-based or functional assay
[2] = target: T1, human TrkB expressed on a stable cell …; test: cell-based or functional assay; remark: listed apart in the source

T1 sequence (Q16620 32-822): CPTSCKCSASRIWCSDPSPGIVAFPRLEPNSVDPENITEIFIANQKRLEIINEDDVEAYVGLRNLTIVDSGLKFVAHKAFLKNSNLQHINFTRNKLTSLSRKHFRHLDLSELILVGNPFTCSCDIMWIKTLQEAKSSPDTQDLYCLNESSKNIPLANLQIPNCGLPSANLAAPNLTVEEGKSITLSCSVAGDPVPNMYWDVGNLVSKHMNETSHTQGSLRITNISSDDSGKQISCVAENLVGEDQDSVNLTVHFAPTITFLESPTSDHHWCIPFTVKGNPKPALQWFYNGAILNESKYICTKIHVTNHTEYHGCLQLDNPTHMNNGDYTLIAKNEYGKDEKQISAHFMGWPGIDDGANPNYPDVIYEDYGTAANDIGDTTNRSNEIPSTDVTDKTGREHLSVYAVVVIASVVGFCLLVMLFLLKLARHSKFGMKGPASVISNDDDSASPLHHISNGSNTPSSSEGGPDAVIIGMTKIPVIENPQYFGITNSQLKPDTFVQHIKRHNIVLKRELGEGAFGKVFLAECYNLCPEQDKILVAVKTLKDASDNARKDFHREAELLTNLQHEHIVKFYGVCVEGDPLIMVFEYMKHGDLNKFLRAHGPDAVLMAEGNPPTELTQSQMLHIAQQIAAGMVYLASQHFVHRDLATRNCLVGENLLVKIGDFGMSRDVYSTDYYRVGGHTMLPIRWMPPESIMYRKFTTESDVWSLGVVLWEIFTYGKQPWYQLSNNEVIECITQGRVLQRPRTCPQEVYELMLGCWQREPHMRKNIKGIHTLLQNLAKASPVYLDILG

EC50 (read off the curve), receptor tyrosine phosphorylation in trkB expressing cell line [1]: ~0.7 nM | EC50 (read off the curve), receptor tyrosine phosphorylation in trkB expressing cell line [2]: ~0.2 nM
B1: human NT-4/5 (mature human neurotrophin-4/5) (ligand)
chain: GVSETAPASRRGELAVCDAVSGWVTDRRTAVDLRGREVEVLGEVPAAGGSPLRQYFFETRCKADNAEEGGPGAGGGGCRGVDRRHWVSECKAKQSYVRALTADAQGRVGWRWIRIDTACVCTLLSRTGRA

EC50 (read off the curve), receptor tyrosine phosphorylation in trkB expressing cell line [1]: ~1 nM
B2: 1PEG-NT4-G1S (ligand)
chain 1: B1 chain with G1S
chain 2: B1 chain with G1S
modifications: no PEG; N-terminal serine (position 1) treated with periodate (oxidized to an aldehyde); N-terminal serine (position 1) oxidized to an aldehyde and linked to 20K-m-PEG-HZ (methoxy polyethylene glycol hydrazide, 20 kDa)

EC50 (read off the curve), receptor tyrosine phosphorylation in trkB expressing cell line [1]: ~1 nM
B3: 2PEG-NT4-G1S (ligand)
chain: B1 chain with G1S
modifications: N-terminal serine (position 1) oxidized to an aldehyde and linked to 20K-m-PEG-HZ (methoxy polyethylene glycol hydrazide, 20 kDa)

Reference: US20050209148A1 (RINAT NEUROSCIENCE, published 2005)
